# Source: the nanobody polyreactivity screen of Harvey et al. (2022)
# Experiment: yeast display, Sf9 membrane polyspecificity reagent, FACS + sequencing; frameworks hold sequencing errors
# How it was run: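 Genes from sorted yeast were amplified by colony PCR, read by MiSeq 2 × 250 sequencing and filtered on CDR length. These cells carried a synthetic nanobody library in Saccharomyces cerevisiae BJ5465 and were sorted by FACS into low and high (top ~1%) gates on anti-HA and streptavidin fluorescence. Polyreactivity is labelled according to the gate of origin.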
row,Sequence,polyreactivity (PSR sort gate)
1,QVQLVESGVGLVQAGGSLRLLCAASGSIFTTYPMGWYRPAPGKERELVAAITSSSGSTYYADSVKGRFTISRDNAKNTVYLQMNSLKPEDTAVYYCNATYSAAVDYWGQGTQVTVSS,low polyreactivity
2,QVQLVESGVGLVQAGGSLRLRCAASGSILGGNAMGWYRQAPGKERELVAAITFSGGGTYYADSVKGRFTISRDNAKNTVYLQMNSRKPEDTAVYYCNAFAPDYYHVYPAEDYWGQGTQVTVSS,low polyreactivity
3,QVQLVESGVGLVQAGGSLRLSCAASGFIFGYYTMGWYRQAPGNERELVAAITYRGGSTYYAYSVKGRFTISRDNAKNTVYLQMNRLKPEDTAVYYCAIRTNVGHDSWGQGTEVTVSS,high polyreactivity
4,QVQLVESGVGLVQAGGSLRLSCAASGFIFYPNAMGWYRQAPGKEREWVAVITGGGSTRYADSVKGRFTISRDNAKNTVYLQMNSLKPEDTAVYYCAVGTVYLTYRGYEYWGQGTQVTVSS,high polyreactivity
5,QVQLVESGVGLVQAGGSLRLSCAASGFILGQYTMGWYRQAPGKERELVAAISSSGSTNYADSVKGRFTISRDNAKNTVYLQMNSLKPEDTAVYYCNGDGNPDFYYSFYDEYDYWGQGTQVTVSS,low polyreactivity
6,QVQLVESGVGLVQAGGSLRLSCAASGFSFAVYGMGSYIQAPGKQRELVAAISTGDSTKYADSVKARFTISRDNAKNTVYLQKNSLKPEDTEVYYCAARIPWSPWLGYWGQGTQVTVST,high polyreactivity
7,QVQLVESGVGLVQAGGSLRLSCAASGFTFCPYDKGWYRQAPGKERELVAVIIGGDSTNYADSVKGRFTISRDNAKNTVYLLMNSLKPEDTAVYYCASDYIDRVGWMDYWGQGTQVTVSS,low polyreactivity
8,QVQLVESGVGLVQAGGSLRLSCAASGFTFNYNAMGWYRQAPGKERELVADISRSGGSTYYADSVKGRFTISRDNAKNTVYLQMNSLKPEDTPVYYCAAVRAIGKYGYWGHGTQVTVSS,high polyreactivity
9,QVQLVESGVGLVQAGGSLRLSCAASGITFEGYAMGWYRQAPGKERELVAAIRSSGTSTYYADSVKGRFTMSRDNAKNTVYLQMNSLKPEDTAVYYCNRARSSSRYDYWGQGTQVTVSS,low polyreactivity
10,QVQLVESGVGLVQAGGSLRLSCAASGLILANYAMGWYRQAPGKERELVAAISSSGGSTYYADSVKGRFTISRDNAKNTVYLQMNSLKPEDTAVYYCAAYPLYRRRWTGDYWGQGTQVTVSS,high polyreactivity
11,QVQLVESGVGLVQAGGSLRLSCAASGLILYTYAMGWYRQAPGKESELVAAINSGGRTNYADSVKGRFTISRDNAKNSVYLQMNSLKPEDTAVYYCAADYGSRVRGFNYWGQGTQVTVSS,low polyreactivity
12,QVQLVESGVGLVQAGGSLRLSCAASGLTFVDNVMGWYRQAPRTERELVADISSSGGSTYADSVKGRFTISRDNAKNTVYFQMNSLKPEDTAVYYCAAGDDSSGEQVDYWGQGTQVTVSS,low polyreactivity
13,QVQLVESGVGLVQAGGSLRLSCAASGLTFYSYAMGWSRQAPGKERELVATISRNGGPTRYADSVKGRFTISRDNAKNTVYLQMNSLKPEDTAVYYCTYVQSGEYDYWGQGTQVTVSS,high polyreactivity
14,QVQLVESGVGLVQAGGSLRLSCAASGNTFGKYAMGWYRQAPGTERELVATITRRGGSTYYADSVKGRFTISRDKAKNSVYLQMNSLKPEDTAVYYCNRAVTYVTYVYWGQGTQVTVSS,high polyreactivity
15,QVQLVESGVGLVQAGGSLRLSCAASGRIFNDNAMGWYSQAPGKERELVAAISTGGSTNYADSVKWRFTISRDNAKNTVYLQMNSLKPEDTEVYYCAADHPVTYETSKFDYWGQGTQVTVSS,low polyreactivity
16,QVQLVESGVGLVQAGGSLRLSCAASGRIFNRYAMGWYRQAPGKERELVAAITGSGGRTYYADSVKGRFTISRDNAKNTVYVVRISMKPEDTAVYFCAKYYPEYPAYGRGDYWGQGTQVTVSS,low polyreactivity
17,QVQLVESGVGLVQAGGSLRLSCAASGRIFNSYAMGWYRQAPGKERELVAAISRNGGITYYADSVKGRFTISRDNAKNTVYLQMNSLKPEDTAVYYCAADGLTPKAIWTSDYWGQGTQVTVSS,high polyreactivity
18,QVQLVESGVGLVQAGGSLRLSCAASGRIFRLYAMGWYRQAPGKERELVAAISSSGGDTYYADSVKGRFTISRDNAKNTVYLQMNSLKPEDTAVYDCNARKRYANVHYNYWGQGTQVTVSS,high polyreactivity
19,QVQLVESGVGLVQAGGSLRLSCAASGRIFTSNAMGWYRQAPGKERELVAAIHRGGSTYYADSVKGRFTISRDNAKNTVYLQMNSLKPEDTAVYYCNAYRKSARSGGHYDYWGQGTQVTVSS,low polyreactivity
20,QVQLVESGVGLVQAGGSLRLSCAASGRIFYGYAMGWYRQAPGKEREFVARINVSGTSTFYADSVKGRFTISRDNAKNTVYLQMSSLKPEDTAVYDCAARGLPPNDYCYVHGYIMDYWGQGTQVTVSS,low polyreactivity
21,QVQLVESGVGLVQAGGSLRLSCAASGRIFYRNAMGWYRQAPGKEREFVAAITFRSGGTYYADSVKGRFTISRDNAKNTVYLQMNSLKPEDTAVYYCATRYLGASRYGYWGQGTQVTVSS,high polyreactivity
22,QVQLVESGVGLVQAGGSLRLSCAASGRILYPNTMGWYRQAPGKERELVAAISGSGYRTYYADSVKGRFTISRDNAKNTVYLQMNSLKPEDTAVYYCAASGYWPFRSGFGYWGQGTQVTVSS,high polyreactivity

row,Sequence,polyreactivity (PSR sort gate)
1,QVQLVESGVGLVQAGGSLRLSCAASGRTFAIYTMGWYRQAPGKERELVARISIRGGSTYYADSVKGRFTISRDTAKITFYLQLTSLKPEDNAVYYCAAVGYFGGYRYDYWGQGTQVSVSS,high polyreactivity
2,QVQLVESGVGLVQAGGSLRLSCAASGRTFDVYAMGWYRQAPGKERELVAAISRGGSTYYADSVKGRFTISRDNAKNTVYLQMNSLKPEDTAVYYCNKAYSSTRGYGYWGQGTQVTVSS,high polyreactivity
3,QVQLVESGVGLVQAGGSLRLSCAASGRTFPYYAMGWYRQAPGKERELVAAISRRGASTYYADSVKGRFTISRDNAKNTVYLQINSLKPEDTAVYYCNAVYRGYYSGELDYWGQGTQVTVSS,high polyreactivity
4,QVQLVESGVGLVQAGGSLRLSCAASGRTFRSYTMGWYRQAPGKERELVAAINRGDRTYADSVKGRFTISRDNAKNTVYLQMNSLKPEDTAVYYCNARYYTHRYDYWGQGTQVTVSS,high polyreactivity
5,QVQLVESGVGLVQAGGSLRLSCAASGRTFSRNAMGWYRQAPGKERELVAAISRSGGSTYYADSVKGRFTISRDNAKNTVYLQMNSLKPEDTAVYYCNADVYSTYYNYNYWGQGTQVTVSS,high polyreactivity
6,QVQLVESGVGLVQAGGSLRLSCAASGSIFEYYTMGWYRQAPGKERELVAAISSDGSTNYADSVTGRFTISRDDAKTTVYLQMISLKPEDTAVDYCASSTSRFYYYRKRGYWGQGTQVTVSS,low polyreactivity
7,QVQLVESGVGLVQAGGSLRLSCAASGSIFTYYAMGWYRQAPGKEREFVAGISWSGGRTYYADSVKGRFTISRDNAKNTVYLQMNSLKPEDTAVYYCNRQYRYIPSPCDYWGQGTQVTVSS,low polyreactivity
8,QVQLVESGVGLVQAGGSLRLSCAASGSIFYRYAMGWYRQAPGKEREFVARITSSGGSTNYADSVKGRFTISRDNAKNTVYLQMNSLKPEDTAVYYCAKRGWSSYGRYDSWGQGTQVTVSS,high polyreactivity
9,QVQLVESGVGLVQAGGSLRLSCAASGSISQGNAMGWYRQAPGKERELVAANRWTSGRTYYADSVKGRFTISRDIAKNTVYLQMNSLKPEDTAEYYCAAYYVYYTPTLFDRVYWGQGSQVTVSS,low polyreactivity
10,QVQLVESGVGLVQAGGSLRLSCAASGSTFRGYAMGWYRQAPGKERELVAAISGIGGSTYYADSVKGRFTISRDNAKNTVYLQMNSLKPEDTAVYYCNAVSGDSGDYWGQGTQVTVSS,low polyreactivity
11,QVQLVESGVGLVQAGGSLRLSCAASGSTFTANAMGLYRQAPGKERELVAAISSTGGSTYYADSVKGRFTISRDNEKNTVYLQMNSLKPEDTAVYYCNKDGPYQVITYDYWGQGTKVTVSS,high polyreactivity
12,QVQLVESGVGLVQAGGSLRLSCAASGSTFVYMGWYRQAPGKEREFVAAITWSGGSTYYADSVKGRFTISRDNAKNTVYLQMNSLKPEDTAVYYCNAVSVFPGWARYYYWGQGTQVTVSS,low polyreactivity
13,QVQLVESGVGLVQAGGSLRLSCAASGSTFYRYAMGWYRQAPGKERELVAAIRGSGGRTYYADSVKGRFTISRDNAKNTVYLQMNSLKPEDTAVYYCAAYRGVSQKGDYWGQGTQVTVSS,high polyreactivity
14,QVQLVESGVGLVQAGGSLRLSCAASGSTFYVYTMGWYRQAPGKERELVAAISLSGDNTYYADSVKGRFTISRDNAKNTVYLQMNSLKPEDTAVYYCAADVFYSPSAQKYDSWGQGTQVTVSS,low polyreactivity
15,QVQLVESGVGLVQAGGSLRLSCAASGYIFFGNAMGWYRQAPGKERELVAAIRWRGTSTYYADSVKGRFTISRDNAKNTVYLQMNSLKPEDTAVYYCAADVVRSNFYGTFLYDYDYWGQGTQVTVSS,low polyreactivity
16,QVQLVESGVGLVQAGGSLRLSCAAYGSIFDGYAMGWYRPAPGKEREFVATITVSGGRSYYADSVKGSFTISRDNANNTVYLEMNSLKPEDTAVYYGNVDVFYYPHRYDYWGQGTQVTVSS,high polyreactivity
17,QVQLVESGVGLVQAGGSLRLSCAHSGRIFFKNTMGWYRQAPGKERELVAAITSSGSSTYYADSVKGRFTISRDNAMNTVYLQMNSLKPEDTAVYYCNADYGFSFYWYDFWGHGTQVTVSS,low polyreactivity
18,QVQLVESGVGLVQAGGSLRLSCASSGRILTYYAMGWYRQAPGKERELVASISSNGGTYYADSVKGRFTISRDNAKNTVYLQMNSLKPEDTAVYYCNAKRVARYQYGASYNYWGQGTQVTVSS,high polyreactivity
19,QVQLVESGVGLVQAGGSLRLSCSASGIIFDDYAMGWYRQAPGKERELVAAISRRGGSTYYADSVKGRFTISRDNAKNTVYLQMNSLKPEDTAVYYCAATTRTYSLYNYWGQGTHVTVSS,high polyreactivity
20,QVQLVESGVGLVQAGGSLRLSCSASGSIFDYYAMGWYRQAHGKERELVAAISWRGGRTYYADSVKGRFTISRDNAKNTVYLQMNSLNPVDTAVYYCNTQEPYYESDYWGLGTQVTVSS,high polyreactivity
21,QVQLVESGVGLVQAGGSLRLSCSASGSTFYTYAMGWYRQAPGKDRELVAAINLRGGRTYYADSVKGRFTISRDTAKNTVYLQMNSRKPEDTAVYYCAAQSIAYYKQIYYLGMDYWGQGTQVTVSS,high polyreactivity
